The source of these data is patent US20080292662A1.

For the assay, the target named is Rhodanese (Sigma), denatured in 8 M urea (UniProt P00586). The assay can be described thus: cell-based or functional assay.
Sequence of UniProt P00586 (P00586 2-297 limits assumed): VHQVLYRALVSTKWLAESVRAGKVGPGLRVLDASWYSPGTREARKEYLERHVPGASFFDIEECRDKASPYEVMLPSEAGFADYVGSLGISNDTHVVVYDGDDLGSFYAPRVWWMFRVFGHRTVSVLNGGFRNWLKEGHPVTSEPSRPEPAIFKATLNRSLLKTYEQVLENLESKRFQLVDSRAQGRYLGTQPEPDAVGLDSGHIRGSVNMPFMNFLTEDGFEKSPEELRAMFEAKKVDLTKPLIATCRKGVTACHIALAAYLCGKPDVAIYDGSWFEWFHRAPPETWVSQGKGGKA

As to “Histidine-tagged ClpL of Streptococcus pneumoniae (from pKHY004, expressed in E. coli)”, the Rhodanese activity (%) after refolding with ClpL 90 Nm was found to be 9%.
